This note sets out measurements from IntAct's records for PubMed 21934712.

This assay deals with scc4_human MAU2 (UniProt Q9Y6X3).
UniProt Q9Y6X3, sequence (Q9Y6X3 whole entry): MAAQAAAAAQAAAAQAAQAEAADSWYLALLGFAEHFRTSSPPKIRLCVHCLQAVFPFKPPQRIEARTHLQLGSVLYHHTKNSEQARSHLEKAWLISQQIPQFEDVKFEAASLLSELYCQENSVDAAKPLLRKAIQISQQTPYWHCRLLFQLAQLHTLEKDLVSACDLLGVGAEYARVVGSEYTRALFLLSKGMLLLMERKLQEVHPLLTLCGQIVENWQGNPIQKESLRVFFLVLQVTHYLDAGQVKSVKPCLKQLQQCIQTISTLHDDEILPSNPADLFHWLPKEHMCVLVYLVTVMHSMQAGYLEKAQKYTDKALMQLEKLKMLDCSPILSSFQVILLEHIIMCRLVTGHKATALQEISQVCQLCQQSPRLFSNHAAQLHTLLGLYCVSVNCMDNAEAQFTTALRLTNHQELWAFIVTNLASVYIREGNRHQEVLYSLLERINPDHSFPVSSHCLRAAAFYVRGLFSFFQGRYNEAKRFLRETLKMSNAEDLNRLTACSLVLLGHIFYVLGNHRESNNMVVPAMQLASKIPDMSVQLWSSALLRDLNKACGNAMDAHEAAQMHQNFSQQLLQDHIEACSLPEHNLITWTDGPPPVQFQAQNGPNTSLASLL

On to “Nipped-B-like protein (Homo sapiens), Q6KC79 G15R”, for which the “effect of a mutation on the interaction” value is recorded as “decreasing interaction strength”.
With “Nipped-B-like protein (Homo sapiens), Q6KC79 P29Q” the entry was “decreasing interaction strength”.
